Measurements taken from the DeepSol protein solubility set.

Test: soluble on expression in E. coli; label from the status in PepcDB or PDB records

| Sequence | soluble on expression in E. coli |
| --- | --- |
| MQDELFETEKIPPKNTKNTKNAPKKSFEEHVHSLERAIDRLNDPNLSLKDGMDLYKTAMQELFLAQKLLENAYLEHEKLQTPDQKA | not soluble |
| MTINFRRNALQLSVAALFSSAFMANAADVPQVKVTVTDKQCEPMTITVNAGKTQFIIQNHSQKALEWEILKGVMVVEERENIAPGFSQKMTANLQPGEYDMTCGLLTNPKGKLIVKGEATADAAQSDALLSLGGAITAYKAYVMAETTQLVTDTKAFTDAIKAGDIEKAKALYAPTRQHYERIEPIAELFSDLDGSIDAREDDYEQKAADPKFTGFHRLEKALFGDNTTKGMDQYAEQLYTDVVDLQKRISELAFPPSKVVGGAAGLIEEVAASKISGEEDRYSHTDLWDFQANVEGSQKIVDLLRPQLQKANPELLAKVDANFKKVDTILAKYRTKDGFETYDKLTDADRNALKGPITALAEDLAQLRGVLGLD | soluble |
| MKYMIGVDGGGTKTEAIAFDKDGNELVRATSGFGNILIDFEEALVHIMEAINQCQKSLINGHCVCVCLGLAGISGANTNELTLRLKKKYGTKIEIFNDAMIAHAAALKGKDGILTIGGTGAICIGKKGEVYQYSGGWGHILGDEGSGYWIALQALKKMAIQFDQGISLCPLSLNIQRQFQLLTPSHIKSLVYTSSKDKIAAIAPLVIQEARDGNDDAHEIMMQAGKELARITVNVYNKLNFKHSTPIAASGSILRLVPEIFAVFKKCCEESMKEITFVSQAEMAVKGTYYLMRDIYFLEHHHHHH | soluble |
| MGSDKIHHHHHHMKRPISQQSVQVALGQAALPVGVLTFNKDGARESSTFAYHEAWLRSADRFEISPDLQLVQGQQFRKAPSRDDSIFPFAFADTEPDGWGCRVIARDHARRRKSAQEKGRDVPHAGLTEMDYLLGVDDLSRIGALRLADEAGNYLRSIEDGGRGTPPLLELGHLIGATRAVEMNRETAADLKYLRGRGTSLGGMRPKCTILDEDGQLAIGKFPSINDDRSVTRGEVLALHLAAAAGITVAQSRIVMSEEIPVALVRRFDRVTNGGRIPYLSAGSMLQASRQEEHAYTQIADCIIARCADPKRDLEELWRRLVFNLLITNVDDHVQNHGFLHVEHGLWRLAPAFDINPFPDKDPELKLWLNEDYGPVDSIEAVMNEARYFRLSADEAKRILGEVRNAVGDWKRVAKSAPVGMTDDDLDAFQPAFENGQTEAAAALL | not soluble |
| EPEGKPRAWVLDFKGSMDAHEVNSLREEITAVLAAAKARDQVVIRLESPGGVVHGYGLAASQLQRLRDKQIPLTVSVDKVAASGGYMMACVANKIVSAPFAILGSIGVVAQIPNLHRFLKNKDIDIELHTAGQYKRTLTMLGENTEEGRRKFREDLNETHHLFKDFVHRMRPGLDIEQVATGEHWYGVQALEKGLVD | not soluble |
| MPPGKNFRRRKEDSSDEEDDETKFVVRSKLDEAKELQSLRKRQHGVSIATLLVGEKLPLEAELEDDPFKLKTGGVVDMKKVKDRSRDMTVDENDLNLGTSFSAETNRRDEDADMMKYIETELKKKKGMVEAEEQKVKVKNPEDLLYELPENINVSSAKKTEEMLSNQMLSGIPEVDLGIDAKIKNIINTEEAKAKLLAEQRNKKKDSGTSFVPTNIAVNYVQHNRFYHEDSNAPQRRNREEPKARPLRVGDTEKPAPEASPPNFRKRPNNEKATDDYHYEKFKKMNRRY | soluble |
| MASWTLVDASAIAVRHPYTFYKPDAETIDRVAAGESVKLIFAFDTDNPDAPRAERLWVTVEGIEADGAFSGRLDNYPQYIRDLSLGERIVFEARHIINTEHDPRETPISRYARRCFVTRRVIDEGKAVGYLYREAPEEENDSGWRLMAGDESDDYMNTAGTTAYVSLGSVLNADDSILPLLDAPPGRAFERLADGSFIEVQGPEG | not soluble |
| MSINTANTPDGLGVLLYNGETIVIFAQGVVMTLGTSENENLEGRRTGTIYLTSHRIIFMPDPGDWLKSFEIPFNSMQDVNLNQPIFGANYLCGIASAVQGGQMRGEVKWRMTFNRGGCIEFGQSLLQAVERAVRMRPENAPPAYSPPIGDFYSAPPAYYQPSPDQGPNGFNPTTDSFPDQPNPSRVFMSSAPPPYPGIGPERGPHPTEELHVAGQFEAPPAYGSGETADGLRRRN | not soluble |
| GKVFERCELARTLKRLGMDGYRGISLANWMCLAKWESGYNTRATNYNAGDRSTDYGIFQINSRYWCNDGKTPGAVNACHLSCSALLQDNIADAVACAKRVVRDPQGIRAWVAWRNRCQNRDVRQYVQGCGV | soluble |
| MPDGWRKMGVLVFYDLPVVSPEQRLAAVRFHKFLLADGFERMHYSIYARYCGSMERAATYERRVEQALPAVGHVNLLKLTDRQMVGMRKWIRGNYRAPENAEFVPPAQYQLFLEHHHHHH | not soluble |
| MHSRSVKFPSSKGHQIAGTIDFPDGTPRAFAMFAHCFTGSRFTPGAARVSKELAERGIACLRFDFPGLGQSEGIFSETSFSENVADIKAAADWLGQHYSAPQLLIGHSLGGAASLKAATTLKCLRGVATIGAPFDPAHAVLHFADRIGEVDENGAVTLTLGGRDITISREFLEDLADTNPEAYLPRLRKPLLILHSPIDQTVGVDNAQLIFRTTRYPKSLVALDKVDHLLTKQGSAQQAARIINTWFEQHIVAENEDPNADTLPEGVAVAQSIPAGKFADIVHTGTHSFTTDREKALGGKNLGVSPTSLLISALAAATSQEIRLAAKESRIHSLEDVNVTISKTVGDGERVHLRRNISLVGDLTDDERHELLLAARNSDIEKMLQGNVTINDQDV | not soluble |
| MIERYSRPEMSAIWTDENRFQAWLEVEILACEAWAELGVIPKEDVKVMRENASFDINRILEIEKDTRHDVVAFTRAVSESLGEERKWVHYGLTSTDVVDTALSYLLKQANDILLKDLERFVDIIKEKAKEHKYTVMMGRTHGVHAEPTTFGLKLALWHEEMKRNLERFKQAKAGIEVGKISGAVGTYANIDPFVEQYVCEKLGLKAAPISTQTLQRDRHADYMATLALIATSIEKFAVEIRGLQKSETREVEEFFAKGQKGSSAMPHKRNPIGSENMTGMARVIRGYMMTAYENVPLWHERDISHSSAERIILPDATIALNYMLNRFSNIVKNLTVFPENMKRNMDRTLGLIYSQRVLLALIDTGLTREEAYDTVQPKAMEAWEKQVPFRELVEAEEKITSRLSPEKIADCFDYNYHLKNVDLIFERLGLA | soluble |
| MKRKFLIGSHGRLASGLQSSIDILAGMGQALETIDAYVDDSDYTSQIDDFIAGVAADEQGLIFTDLLGGSVNQKMVTAVMNSGKDNIFLITNSNLATLLSLVFLKPGEALTKDEIVTVINESQVQLVDLVPETNSEDDFFD | not soluble |
| MIDLYYAPTPNGHKITLFLEEAELAYRLLKVDISKGNQFRPDFLAISPNNKIPAIVDHAPADGGQPLSLFESGEILLYLAEKSGKLLSGELRERHTTLQWLFWQVGGLGPMLGQNHHFNHFAPQAIPYAIERYQVETQRLYNVLNKRLETSPWLGGDHYSIADIASWPWVNAHQRQRIDLDTYPAVYNWFERIRTRPATARALLQAQLHCNSTKA | not soluble |
| ENALIGVNDHTLVTENDGRRWVTREPAIVYFHKKYWFNIIAMIRETGVSYYCNLASPYILDPEALKYIDYDLDVKVFADGEKRLLDVDEYEQHKAQMNYP | not soluble |
| LSLQSEIDSLCAVSHELLHLGLDGEPIYSDRFRQLNTDVYHRCEHLFGSHGRTLEEEASLCIALLTGYNATIYNHGDKEDKIQSVLNRSWDLLDTLPVSLLKCRLLVACYAEVFD | not soluble |
| MQHAKIFFVIASVKFLMILSIHNYTQMSKTCKLRTVARKTVMEFEGVEDFIVPFVNYTKRFMVAPDKKLISCTLRKSMSQLAENIMCLLYDEQQYFANSQSLNDTWKDERKCEHDRSYLNPSETLLNDTDTVRFAFIRDPFQRFISFYLDKCVREQKCYNCGNNMTCVLKNFYWGLKKVQRRWDGREQPEYVEIHAAPLSWNCDFYKDLSKWQLIPIGSDKTERSSAITQTEKILRKQRVNETLVDMVVDGMKDGDTDHSTYKSAHRLEAERQIREDPYIREMLHKIYYFDYVVFPFNRDSLDLKFQDTSCTIPLP | not soluble |
| SGGRHIQAIRCWTIWKYMKDYFPISLVKTAELDPSRNYIAGFHPHGVLAVGAFANLCTESTGFSSIFPGIRPHLMMLTLWFRAPFFRDYIMSAGLVTSEKESAAHILNRKGGGNLLGIIVGGAQEALDARPGSFTLLLRNRKGFVRLALTHGAPLVPIFSFGENDLFDQIPNSSGSWLRYIQNRLQKIMGISLPLFHGRGVFQYSFGLIPYRRPITTVVGKPIEVQKTLHPSEEEVNQLHQRYIKELCNLFEAHKLKFNIPADQHLEFC | soluble |
